{
  "source": "the nanobody polyreactivity screen of Harvey et al. (2022)",
  "data": [
    {"experiment": "yeast display, Sf9 membrane polyspecificity reagent, FACS + sequencing; frameworks hold sequencing errors", "outline": "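A synthetic nanobody library was expressed on Saccharomyces cerevisiae BJ5465 by galactose induction for 36–48 hours. The library was stained for 1 hour at 4 °C with 10% biotinylated, detergent-solubilized Sf9 membrane reagent and enriched with streptavidin microbeads before FACS. Low and high (top ~1%) gates were set on anti-HA fluorescence for expression and streptavidin fluorescence for reagent binding, and each polyreactivity label reflects the gate of origin.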", "values": [
      {"sequence": "QVQLVESGGGLVQAGGSLRLSCAASGGIIQGYSMVWYRQAPGKERELVAAISSSGGTTYYADSVKGRFTISRDNAKNTVYLQMNSLKPEDTAVYYCAAPTHSPYDYWGQGTQVTVSS", "polyreactivity (PSR sort gate)": "low polyreactivity"},
      {"sequence": "QVQLVESGGGLVQAGGSLRLSCAASGGIIRVYVMGWSRQAPGKERELVAAISRRGGSTYYADSVKGRFTISRDNAKNTVYLQMNSLKPEDTAVYYCAAAVRPRANTTYQRPRYYYWGQGTQVTVSS", "polyreactivity (PSR sort gate)": "high polyreactivity"},
      {"sequence": "QVQLVESGGGLVQAGGSLRLSCAASGGILRQNTMGWYRQAPGKERELVAAISSSGGRTYYADSVKGRFTISRDNAKNTVYLQMNSLKPEDTAVYYCNVPAKRYPYYIRQSTVYPGNYWGQGTQVTVSS", "polyreactivity (PSR sort gate)": "high polyreactivity"},
      {"sequence": "QVQLVESGGGLVQAGGSLRLSCAASGGILVFYALGWYRQSPGKERELVAAINVSGGSTYYADSVKGRFTISRDNAKNTVYLQMNSLKPEDTAVYYCAALGPYLDYGVQYGYWGQGTQVTVSS", "polyreactivity (PSR sort gate)": "low polyreactivity"},
      {"sequence": "QVQLVESGGGLVQAGGSLRLSCAASGGILVGYAMGWYRQAPGKERELVAAINYSGGSTNYADSVKGRFTISRDNAKNTVYLQMNSLKPVDTAVYYCAARSTARYGYWGQGTQVTVSS", "polyreactivity (PSR sort gate)": "low polyreactivity"},
      {"sequence": "QVQLVESGGGLVQAGGSLRLSCAASGGILWGNGMGWYRQAPGKERELVAAISTGGSTNYADSVKGRFTISRDNAKNTVYLQMNSLKPEETAVYYCAGGAGGVRYSFYWNDYWGQGTQVTVSS", "polyreactivity (PSR sort gate)": "high polyreactivity"},
      {"sequence": "QVQLVESGGGLVQAGGSLRLSCAASGGISTAYTMGWYRQAPGKERELVADITRSGGRTYYADSVKGRFTISRDNAKNTVYLQMNSLKPEDTAVYYCARTYYYRFNYWGQGTQVTVSS", "polyreactivity (PSR sort gate)": "high polyreactivity"},
      {"sequence": "QVQLVESGGGLVQAGGSLRLSCAASGGLFYYNAMGWYRQAPGKERELVAAISGSGGTTYYADSVKGRFTISRDNAKNTVYLQMNSLKPEDTAVYYCAKRPYTVIAYSRYGYWGQGTQVTVSS", "polyreactivity (PSR sort gate)": "high polyreactivity"},
      {"sequence": "QVQLVESGGGLVQAGGSLRLSCAASGGMGWYRQAPGKERELVATISSVGSTNYADSVKGRFTISRDNAKNTVYLQMNSLKPEDTAVYYCNDTGVQYFLYAYWGQGTQVTVSS", "polyreactivity (PSR sort gate)": "low polyreactivity"},
      {"sequence": "QVQLVESGGGLVQAGGSLRLSCAASGGMGWYRQAPGKERELVATISSVGSTNYADSVKGRFTISRDNAKNTVYLQRNSLKPEVTAVYYCNATGVQYFLYGYWGQGTQVTVSS", "polyreactivity (PSR sort gate)": "low polyreactivity"},
      {"sequence": "QVQLVESGGGLVQAGGSLRLSCAASGGNFGRYAMGWYRQAPGKERELVADINWSGGANTNYADSVKGRFTISRDNAKNTVYLQMNSLKPEDTAVYYCAAPSYFTHSGRFDYWGQGTQVTVSS", "polyreactivity (PSR sort gate)": "low polyreactivity"},
      {"sequence": "QVQLVESGGGLVQAGGSLRLSCAASGGPFFYYAMGWYRAAPGKAREWVAAITWSATDTYYADSVKGRFTISRDNAKNTVYIQMNSLKPEDTAVYYCNAAPIGSEVDYGGQGTQVTVSS", "polyreactivity (PSR sort gate)": "low polyreactivity"},
      {"sequence": "QVQLVESGGGLVQAGGSLRLSCAASGGSFNNYAMGWYRQAPGKERELVAAITYSGVRTNYADSVKGRFTISRDNAKNTVYLQMNSLKPEDTAVYYCAADGLSNVRQMDYWGQGTQVTVSS", "polyreactivity (PSR sort gate)": "low polyreactivity"},
      {"sequence": "QVQLVESGGGLVQAGGSLRLSCAASGGTFALYAMGWYRQAPGKERELVASISFNGGSTYYADSVKGRFTISRDTAKNTVYLQMNSLKPEDTAVYYCNTGYQWGVYESQTAEEDYWGQGTQVTVSS", "polyreactivity (PSR sort gate)": "low polyreactivity"},
      {"sequence": "QVQLVESGGGLVQAGGSLRLSCAASGGTFAWYAMGWYRQAPGKERELVAAITSDGNTDYADSVKGRFTISRDNAKNTVYLQMNSLKPEDTAVYYCAADVQWRSAYDYTMGYWGQGTQVTVSS", "polyreactivity (PSR sort gate)": "low polyreactivity"},
      {"sequence": "QVQLVESGGGLVQAGGSLRLSCAASGGTFDSNAMGWYRQAPGKERELVAAISSGGSTYYADSVKGRFTISRDNAKNTVYLQMNSLKPEDTAVYYCAADSSGGASAPMDYWGQGTQVTVSS", "polyreactivity (PSR sort gate)": "low polyreactivity"},
      {"sequence": "QVQLVESGGGLVQAGGSLRLSCAASGGTFDSYVMGWYRQAPGKERELVAAITWSGGSTYYAESVKGRFTISRDNAKNTVYLQMNSLKPEDTAVYYCNNGGSTTYAYDYWGQGTQVTVSS", "polyreactivity (PSR sort gate)": "low polyreactivity"},
      {"sequence": "QVQLVESGGGLVQAGGSLRLSCAASGGTFDTYAMGWYRQAPGKERELVAGIDWSGGSTYYADSVKGRFTISRDNAKNTVYLQMNSLKPEDTAVYYCAADYYYPSQMDYWGQGTQVTVSS", "polyreactivity (PSR sort gate)": "low polyreactivity"},
      {"sequence": "QVQLVESGGGLVQAGGSLRLSCAASGGTFDTYAMGWYRQAPGKERELVAGIDWSGGSTYYADSVKGRFTISRDYAKNTVYLQMNSLKPEDTAVYYCAADFYYPSQMDYWGQGTQVTVSS", "polyreactivity (PSR sort gate)": "low polyreactivity"},
      {"sequence": "QVQLVESGGGLVQAGGSLRLSCAASGGTFDVYTMGWYRQAPGKERELVAVISSSGGGTYYADSVKGRFTISRDNAKNTVYLQMNSLKPEDTAVYYCAARRKRQNTYYPYYYWGQGTQVTVSS", "polyreactivity (PSR sort gate)": "high polyreactivity"},
      {"sequence": "QVQLVESGGGLVQAGGSLRLSCAASGGTFDWNTMGWYRQAPGKERELVASITSGGRTNYADSVKGRFTISRDNAKNTVYLQMNSLKPEDTAVYYCAKYRRSAYPWQTWVGQKFDYWGQGTQVTVSS", "polyreactivity (PSR sort gate)": "low polyreactivity"},
      {"sequence": "QVQLVESGGGLVQAGGSLRLSCAASGGTFERNAMGWYRQAPGKERELVAAITGSGGRTYYADSVKGRFTISRDNAKNTVYLHMNSLKPEDTAVYYCAAVPWWKYNYWGQGTQVTVSS", "polyreactivity (PSR sort gate)": "high polyreactivity"},
      {"sequence": "QVQLVESGGGLVQAGGSLRLSCAASGGTFFENAMGWDRQAPGKERELVAAISSSGASTYYADSVKGRFTISRDNAKNTVYLQMNSLKPEDTAVYYCNAGQRVRSTLYDYWGQGTQVTVSS", "polyreactivity (PSR sort gate)": "high polyreactivity"},
      {"sequence": "QVQLVESGGGLVQAGGSLRLSCAASGGTFFGYAMGWYRPAPGKERELVAAISGSGGRTYYADSVKGRFTISRDNAKNTVYLQMNSLKPEDTAVYYCAADATHETYYPFYYWGQGTQVTVSS", "polyreactivity (PSR sort gate)": "high polyreactivity"},
      {"sequence": "QVQLVESGGGLVQAGGSLRLSCAASGGTFFSYTKGWYRQAPGKERELVAAITWSGASTYYADSVKGRFTISRDNAKNTVYIQMNSLKPEDTAVYYCAADSYDSPGYLTTSTYRLDYWGQGTHVTVSS", "polyreactivity (PSR sort gate)": "low polyreactivity"},
      {"sequence": "QVQLVESGGGLVQAGGSLRLSCAASGGTFFYNAMGWYRQAPGKERELVAAINGGTSTNYADSVKGRFTISRDNAKNTVYLQMNSLKPEDTAVYYCAAVYRRLGRYDWYDYWGQGTQVTVSS", "polyreactivity (PSR sort gate)": "low polyreactivity"},
      {"sequence": "QVQLVESGGGLVQAGGSLRLSCAASGGTFGSYAMGWYRQAPGKERELVAAIRSGDRTYYADSVKGRFTISRDNAKNTVYLQMNSLKPEDTAVYYCNADGYARFRTYYSRDTREYDYWGQGTQVTVSS", "polyreactivity (PSR sort gate)": "low polyreactivity"},
      {"sequence": "QVQLVESGGGLVQAGGSLRLSCAASGGTFGSYAMGWYRQAPGKERELVAAITGSGGRTYYADSVKGRFTISRDNAKNTVYLQMNSLKPEDTAVYYCNATRGIGPPFYYWGQGTKVTVSS", "polyreactivity (PSR sort gate)": "high polyreactivity"},
      {"sequence": "QVQLVESGGGLVQAGGSLRLSCAASGGTFGTNAMGWYRQAPGKERELVATIRTSVGSTYYADSVKGRFTISRDNAKNTVYLQMNSVKPEDTAVYYCAAGVPKNGQAGYDYWGQGTQVTVSS", "polyreactivity (PSR sort gate)": "high polyreactivity"},
      {"sequence": "QVQLVESGGGLVQAGGSLRLSCAASGGTFGVNAMGWYRQAPGKERELVAAISSSGGRTYYADSVKGRFTISRDNAKNTVFLQMNSLKPEDTAVYYCAARNYFWGQGTQVTVSS", "polyreactivity (PSR sort gate)": "low polyreactivity"},
      {"sequence": "QVQLVESGGGLVQAGGSLRLSCAASGGTFGYNAMGWYRQAPGKERELVAAITGGGRTYYADSVKGRFTISRDNAKNTVYLQMNSLKPEDTAVYYCNADYAYYSYDYWGQGTQVTVSS", "polyreactivity (PSR sort gate)": "low polyreactivity"},
      {"sequence": "QVQLVESGGGLVQAGGSLRLSCAASGGTFGYYAMGWYRQAPGKDRELVAGINYSGGRTYYADSVKGRFTISRDNAKNTVYLQMNSLKPEDTAVYYCAAQAYVGYRGYDYWGQGTQVTVSS", "polyreactivity (PSR sort gate)": "high polyreactivity"},
      {"sequence": "QVQLVESGGGLVQAGGSLRLSCAASGGTFHYYAMGWYRQAPGKERELVAAISWSGGSTYYADSVKGRFTISRDNAKNTVYLQMNSLKPEDTAVYYCAAETYPYLFHTYDYWGQGTQVTVSS", "polyreactivity (PSR sort gate)": "low polyreactivity"},
      {"sequence": "QVQLVESGGGLVQAGGSLRLSCAASGGTFINYAMGWYRQAPGKERELVAGISQSGDSTYYADSVKGRFTISRDNAKNTVYLQMNSLKPEDTAVYYCNADAVAQQYDWWENYDYWGQGTQVTVSS", "polyreactivity (PSR sort gate)": "high polyreactivity"},
      {"sequence": "QVQLVESGGGLVQAGGSLRLSCAASGGTFIRYAMALYRQAPGKERELVADITSSGDSTYYADSVKGRFTISRDNAKNTVYLPMNSLITEDTAVYYCATTHDYWLWGMGYWGQGTQVTVSS", "polyreactivity (PSR sort gate)": "high polyreactivity"},
      {"sequence": "QVQLVESGGGLVQAGGSLRLSCAASGGTFKTYVMGWSRQEPGKERELVAVISGSGASTYYADSVKGRFTISRDNAKNTVYLQMNSLKPEDTAVYYCAARYAWGWSGYYYWGQGTQVTVSS", "polyreactivity (PSR sort gate)": "high polyreactivity"},
      {"sequence": "QVQLVESGGGLVQAGGSLRLSCAASGGTFKYYAMGWYRQAPGKERELVADITSGGSTNYADYVKGRFTISRDNAKNTVYLQMNSLKPEDTAVYYCAKRRYWVKYDYWGQGTQVTVSS", "polyreactivity (PSR sort gate)": "high polyreactivity"},
      {"sequence": "QVQLVESGGGLVQAGGSLRLSCAASGGTFLNYAMGWYRQAPGKECELVAVITNGDSTYYADSVKGRFTISRDNAKNTVYLQMNSLKPEDTAVYYCNADDWGQYNIWYDYWGQGTQVTVSS", "polyreactivity (PSR sort gate)": "low polyreactivity"},
      {"sequence": "QVQLVESGGGLVQAGGSLRLSCAASGGTFLRNAMGWYRQAPGKERELVAAISARGGSTRYADSVKGRFTISRDNAKNTVYLQMNSLKPEDTAVYYCDATSSHHRRMEYWGQGTQVTVSS", "polyreactivity (PSR sort gate)": "high polyreactivity"},
      {"sequence": "QVQLVESGGGLVQAGGSLRLSCAASGGTFLYNAMGWYRQAPGKERELVAAISRSGGRTDYADSVKGRFTISRDNAKNTVYLQMNSLKPEDTAVYYCATPGTYYTHRYRYDYWGHGTQVTVSS", "polyreactivity (PSR sort gate)": "high polyreactivity"},
      {"sequence": "QVQLVESGGGLVQAGGSLRLSCAASGGTFNTYAMGWYRPAPGKERELVAAITSSGGSTFYADSVKWRFTISRDNAKNTVYLQMNSLKPEDTAVYYCAAKSYWTIVYRHPGYYYWGQGTQVTVSS", "polyreactivity (PSR sort gate)": "low polyreactivity"},
      {"sequence": "QVQLVESGGGLVQAGGSLRLSCAASGGTFPGYTMGWYRQAPGKERELVAAISRGGRTYYADSVKGRFTISRDNAKNTVYLQMNSLKPEDTAVYYCNAVTKYGNFDYWGQGTQVTVSS", "polyreactivity (PSR sort gate)": "high polyreactivity"},
      {"sequence": "QVQLVESGGGLVQAGGSLRLSCAASGGTFPWYSMGWYRPATGKEREMVAGITWGGVSTYADSVKGRFTISRDNAKNTVYLQMNSLKQEDTAVYYCASRTSFTRGPWYKFYYWGQGTQVTVSS", "polyreactivity (PSR sort gate)": "high polyreactivity"}
    ]}
  ]
}
